# Reference: paper PMC11538452 (Nature Communications, 2024)
# Read-outs that look alike come from different tables or passages of the source.
# Key:
# [1] = target: T1, pTag9aa (free, without cargo) (Clostridium tetani, tetanus …)
# [2] = target: T2, pTag_(18aa) (original 18 amino acid peptide tag) (Clostridium tetani, tetanus …)
# [3] = target: T1, pTag9aa (free, without cargo); test: SPR; […]; 25 °C, HBS with 0.05% Tween20, pH 7.5; Biacore T200, 1:1 Langmuir model; conditions: both partners purified
# [4] = target: T2, pTag_(18aa) (original 18 amino acid …); test: as above; conditions: both partners purified
# [5] = target: pTag_(12aa) (Clostridium tetani, tetanus …); test: as above; conditions: both partners purified
# [6] = target: T3, human CD40-Fc (human, UniProt P25942); test: SPR; wildtype against deimmunized variant on the CD40 protein (Supplementary Fig. 3B); format of this experiment not told in what was shown; conditions: both partners purified
# T3 construct: also called hCD40-Fc
# T3 sequence (P25942 21-193): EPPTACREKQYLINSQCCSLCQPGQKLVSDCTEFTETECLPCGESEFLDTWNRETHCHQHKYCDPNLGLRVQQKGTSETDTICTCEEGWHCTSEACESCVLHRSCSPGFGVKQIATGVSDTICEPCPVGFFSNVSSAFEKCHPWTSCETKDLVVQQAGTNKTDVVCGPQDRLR
binder,measurement,setting,value
"BiA9*2_HF (antibody, V domains shown) VH: QVQLVQSGAEVKKPGASVKVSCKASGFNIKDFNIHWVRQAPGQGLEWIGRIDPENGDAEYVPKFQGRVTMTRDTSTSTVYMELSSLRSEDTAVYYCTTGSYDLDVEYWGQGTLVTVSS VL: DIQMTQSPSSLSASVGDRVTITCHASQNINVWLSWYQQKPGKAPKLLIYKASTLHTGVPSRFSGSGSGTDFTLTISSLQPEDFATYYCQQGQSYPLTFGQGTKLEIK",binding result,[1],binds
same,binding result,[2],binds
" (scFv, V domains shown, also called humanized scFv; humanized single chain clone SG; source: E. coli, purified (Ni-NTA)) VH: QVQLVQSGAEVKKPGASVKVSCKASGFNIKDFNIHWVRQAPGQGLEWIGRIDPESGDAEYVPKFQGRVTMTRDTSTSTVYMELSSLRSEDTAVYYCTTGSYDLDVEYWGQGTLVTVSS VL: DIQMTQSPSSLSASVGDRVTITCHASQNINVWLSWYQQKPGKAPKLLIYKASTLHTGVPSRFSGSGSGTDFTLTISSLQPEDFATYYCQQGQSYPLTFGQGTKLEIK",binding result,[3],binds
same,binding result,[4],binds
same,binding result,[5],binds
"murine anti-pTag scFv (scFv, V domains shown, also called murine scFv; mscFv) VH: EVRLLQSGAALVRPGASVKLSCTASGFNIKDFNIHWVKQRPEQGLEWIGRIDPENGDAEYVPKFQVRATMTTDTSSNTVYLHLSSLTSGDTAVYYCTTGSYDLDVEYWGQGTTLTVSS VL: ELQMTQSPSSLSASLGDTVTITCHASQNINVWLSWYQQRPGNIPKLLIYKASTLHTGVPSRFRGSGSGTGFTLTISSLQPEDIATYYCQQGQSYPLTFGAGTKLELK",Kd,[4],4 nM
same,binding result,[5],binds
"A9 anti-CD40 antibody, wildtype variant (before deimmunization) (antibody, V domains shown, also called WT; original variant) VH: EVQLLESGGGLVQPGGSLRLSCAASGFTFSSYAMSWVRQAPGKGLEWVSGISGYSGSTYYADSVKGRFTISRDNSKNTLYLQMNSLRAEDTAVYYCARYYSYYGYYYFDYWGQGTLVTVSS VL: DIQMTQSPSSLSASVGDRVTITCRASQSISSYLNWYQQKPGKAPKLLIYAASSLQSGVPSRFSGSGSGTDFTLTISSLQPEDFATYYCQQGYPYPFTFGQGTKLEIK",Kd,[6],3.4 nM
